Like-named read-outs stand apart in the source and are kept apart here.
Key:
Assay in all cases: competition EMSA
[1] = target: T1, LexA (DinR) wild type (Bacillus subtilis, UniProt P31080 1-205)
T1 sequence: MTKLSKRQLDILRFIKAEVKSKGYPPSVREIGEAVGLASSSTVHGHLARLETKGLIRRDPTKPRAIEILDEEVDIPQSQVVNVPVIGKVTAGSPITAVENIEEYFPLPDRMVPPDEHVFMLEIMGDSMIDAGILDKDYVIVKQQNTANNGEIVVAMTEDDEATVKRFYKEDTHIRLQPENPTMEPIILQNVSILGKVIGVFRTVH

[2] = target: T1, LexA (DinR) wild type; remark: listed apart in the source
[3] = target: T1, LexA (DinR) wild type; remark: listed apart in the source
[4] = target: T1, LexA (DinR) wild type; remark: listed apart in the source
[5] = target: T1, LexA (DinR) wild type; remark: listed apart in the source
[6] = target: T1, LexA (DinR) wild type; remark: listed apart in the source
[7] = target: T1, LexA (DinR) wild type; remark: listed apart in the source
[8] = target: T1, LexA (DinR) wild type; remark: listed apart in the source
[9] = target: T1, LexA (DinR) wild type; remark: listed apart in the source
[10] = target: T1, LexA (DinR) wild type; remark: listed apart in the source
[11] = target: T1, LexA (DinR) wild type; remark: listed apart in the source
[12] = target: T1, LexA (DinR) wild type; remark: listed apart in the source
[13] = target: T1, LexA (DinR) wild type; remark: listed apart in the source
[14] = target: T1, LexA (DinR) wild type; remark: listed apart in the source
[15] = target: T1, LexA (DinR) wild type; remark: listed apart in the source

B1: recA op T5C (dsDNA)
DNA 1: GGGGGGCGAACATGCGTTCGCCCCCC
DNA 2: GGGGGGCGAACGCATGTTCGCCCCCC
- Ki [1]: 0.22 nM

B2: recA op T5C,A6T (dsDNA)
DNA 1: GGGGGGCGAACTTGCGTTCGCCCCCC
DNA 2: GGGGGGCGAACGCAAGTTCGCCCCCC
- Ki [2]: 0.49 nM

B3: recA op A6T (dsDNA)
DNA 1: GGGGGGCGAATTTGCGTTCGCCCCCC
DNA 2: GGGGGGCGAACGCAAATTCGCCCCCC
- Ki [3]: 11.5 nM

B4: recA op T5C,G8A,C9T (preferred) (dsDNA)
DNA 1: GGGGGGCGAACATATGTTCGCCCCCC
DNA 2: GGGGGGCGAACATATGTTCGCCCCCC
- Ki [4]: 0.17 nM

B5: recA op G2A,T5C (dsDNA)
DNA 1: GGGGGGCAAACATGCGTTCGCCCCCC
DNA 2: GGGGGGCGAACGCATGTTTGCCCCCC
- Ki [5]: 5.2 nM

B6: recA op C1G,T5C (dsDNA)
DNA 1: GGGGGGGGAACATGCGTTCGCCCCCC
DNA 2: GGGGGGCGAACGCATGTTCCCCCCCC
- Ki [6]: 1 nM

B7: recA op T7C (dsDNA)
DNA 1: GGGGGGCGAATACGCGTTCGCCCCCC
DNA 2: GGGGGGCGAACGCGTATTCGCCCCCC
- Ki [7]: 7.8 nM

B8: recA op T5C,A6C (dsDNA)
DNA 1: GGGGGGCGAACCTGCGTTCGCCCCCC
DNA 2: GGGGGGCGAACGCAGGTTCGCCCCCC
- Ki [8]: 0.56 nM

B9: recA op A6C (dsDNA)
DNA 1: GGGGGGCGAATCTGCGTTCGCCCCCC
DNA 2: GGGGGGCGAACGCAGATTCGCCCCCC
- Ki [9]: 20 nM

B10: recA op C1A (dsDNA)
DNA 1: GGGGGGAGAATATGCGTTCGCCCCCC
DNA 2: GGGGGGCGAACGCATATTCTCCCCCC
- Ki [10]: 11.4 nM

B11: recA op A6G (dsDNA)
DNA 1: GGGGGGCGAATGTGCGTTCGCCCCCC
DNA 2: GGGGGGCGAACGCACATTCGCCCCCC
- Ki [11]: 6.4 nM

B12: recA op C1G (dsDNA)
DNA 1: GGGGGGGGAATATGCGTTCGCCCCCC
DNA 2: GGGGGGCGAACGCATATTCCCCCCCC
- Ki [12]: 53 nM

B13: recA op T7A (dsDNA)
DNA 1: GGGGGGCGAATAAGCGTTCGCCCCCC
DNA 2: GGGGGGCGAACGCTTATTCGCCCCCC
- Ki [13]: 17.1 nM

B14: recA op C1A,T5C (dsDNA)
DNA 1: GGGGGGAGAACATGCGTTCGCCCCCC
DNA 2: GGGGGGCGAACGCATGTTCTCCCCCC
- Ki [14]: 0.42 nM

B15: recA op T5C,T7A (dsDNA)
DNA 1: GGGGGGCGAACAAGCGTTCGCCCCCC
DNA 2: GGGGGGCGAACGCTTGTTCGCCCCCC
- Ki [15]: 0.62 nM
